The supplement of paper PMC10126150
± gives the standard deviation of the averaged measurements.
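Note: ATP exposure 15 min at 22 °C before imaging.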

What follows are sequences tested on ATP (assay: switch fluorescence ratio, 500 uM ATP over buffer (Cy3 cluster intensity, sum of 5 cycles each) (fold (ratio)); higher = stronger signal-on switching upon ATP binding; sequences stand for … in TCGTCGGCAGCGTCAGATGTGTATAAGAGACAGTTTTTTTTTTTTTTTTTTTTTTTTT…TC). Settings: aptamer strand: ATP DNA aptamer (quencher-CACCTGGGGGAGTATTGCGGAGGAAGG + anchor), 100 nM annealed; ATP concentration: 500 uM.
Summary of the method: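 Switching-strand clusters labelled with Cy3 on a modified Illumina MiSeq flow-cell were annealed to 100 nM quencher-labelled ATP aptamer, imaged in selection buffer, and re-imaged after 15 min with 500 uM ATP at 22 °C. This was done over five cycles with NaOH stripping and re-annealing in between. The fluorescence ratio is summed target-cycle over summed buffer-cycle Cy3 intensity per cluster, averaged per switch-domain sequence, excluding clusters outside 100-1000 RFU.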
In the case of GGAAACTTTT, the switch fluorescence ratio is reported as 1.07 ± 0.098.
GGAAAGGTCG was tested, and the switch fluorescence ratio was 1.04 ± 0.039.
GGAAATCGGG was tested, and the switch fluorescence ratio was 0.989 ± 0.027.
Sequence GGAAATGGTG has a switch fluorescence ratio of 1.1 ± 0.11.
In the case of GGAAATGTTG, the switch fluorescence ratio is reported as 0.991 ± 0.041.
In the case of GGAACGCAGG, the switch fluorescence ratio is reported as 0.9981 ± 0.0022.
With GGAACGGGGT the switch fluorescence ratio was 1.01 ± 0.048.
For GGAAGATACG, the switch fluorescence ratio was 1.03 ± 0.015.
For GGAAGATGTG, the switch fluorescence ratio was 1.02 ± 0.016.
Sequence GGAAGCTTAA has a switch fluorescence ratio of 1.048 ± 0.0032.
GGAAGGATTC showed a switch fluorescence ratio of 0.999 ± 0.013.
GGAAGGGAAC showed a switch fluorescence ratio of 0.988 ± 0.033.
In the case of GGAAGGGCGA, the switch fluorescence ratio is reported as 0.9569 ± 0.0068.
Sequence GGAAGGGGTG has a switch fluorescence ratio of 1.01 ± 0.035.
GGAAGGGGTT was tested, and the switch fluorescence ratio was 1.03 ± 0.089.
For GGAAGGTAAT, the switch fluorescence ratio was 1 ± 0.048.
Work on GGAAGGTGGT yielded a switch fluorescence ratio of 0.987 ± 0.024.
GGAAGTTGGG showed a switch fluorescence ratio of 0.98 ± 0.023.
GGAAGTTTTT showed a switch fluorescence ratio of 0.9946 ± 0.0079.
Sequence GGAATAAGGG has a switch fluorescence ratio of 0.995 ± 0.015.
GGAATACGAT showed a switch fluorescence ratio of 1.09 ± 0.16.
GGAATAGCGG gave a switch fluorescence ratio of 0.993 ± 0.029.
GGAATATATA showed a switch fluorescence ratio of 0.951 ± 0.013.
GGAATATTGG showed a switch fluorescence ratio of 1.02 ± 0.019.
GGAATCAGGT showed a switch fluorescence ratio of 1.014 ± 0.0065.
In the case of GGAATCCTTT, the switch fluorescence ratio is reported as 0.998 ± 0.0088.
Work on GGAATCGGCG yielded a switch fluorescence ratio of 0.988 ± 0.017.
Work on GGAATCTAAC yielded a switch fluorescence ratio of 1.03 ± 0.048.
Work on GGAATGCTTC yielded a switch fluorescence ratio of 1.06 ± 0.041.
Sequence GGAATGGATA has a switch fluorescence ratio of 1 ± 0.035.
GGAATGGGGT was tested, and the switch fluorescence ratio was 0.997 ± 0.024.
In the case of GGAATGGGTG, the switch fluorescence ratio is reported as 1 ± 0.057.
GGAATTATTT showed a switch fluorescence ratio of 1.017 ± 0.01.
GGAATTCCCG showed a switch fluorescence ratio of 0.98 ± 0.054.
Work on GGAATTGGTT yielded a switch fluorescence ratio of 1.01 ± 0.061.
Sequence GGAATTTAGG has a switch fluorescence ratio of 1 ± 0.015.
For GGAATTTTGC, the switch fluorescence ratio was 1.03 ± 0.031.
In the case of GGAATTTTTT, the switch fluorescence ratio is reported as 0.9887 ± 0.0051.
Sequence GGACACGCAG has a switch fluorescence ratio of 1.02 ± 0.047.
GGACACGGTA gave a switch fluorescence ratio of 1.12 ± 0.029.
For GGACACGTTG, the switch fluorescence ratio was 1.05 ± 0.083.
GGACAGGGGG was tested, and the switch fluorescence ratio was 0.9633 ± 0.0051.
GGACATTGAC showed a switch fluorescence ratio of 1.08 ± 0.02.
For GGACCCGGTT, the switch fluorescence ratio was 1.04 ± 0.029.
GGACCGGCCG was tested, and the switch fluorescence ratio was 1.01 ± 0.076.
Work on GGACGATCGG yielded a switch fluorescence ratio of 0.9765 ± 0.0046.
Sequence GGACGGAATG has a switch fluorescence ratio of 0.955 ± 0.02.
GGACGGTCTT showed a switch fluorescence ratio of 1.01 ± 0.043.
For GGACGTAGTT, the switch fluorescence ratio was 0.9578 ± 0.0095.
GGACTAGTTA was tested, and the switch fluorescence ratio was 0.99 ± 0.021.
GGACTGGGGA showed a switch fluorescence ratio of 1.0045 ± 0.00084.
Work on GGACTGGTCG yielded a switch fluorescence ratio of 1 ± 0.022.
In the case of GGACTTCGCG, the switch fluorescence ratio is reported as 1.01 ± 0.085.
GGACTTGTCT showed a switch fluorescence ratio of 1.01 ± 0.053.
Sequence GGACTTTTTT has a switch fluorescence ratio of 1.03 ± 0.016.
Sequence GGAGAATTTA has a switch fluorescence ratio of 1.02 ± 0.034.
With GGAGACGATA the switch fluorescence ratio was 1.04 ± 0.0032.
With GGAGACTCAA the switch fluorescence ratio was 0.988 ± 0.016.
With GGAGAGGGTC the switch fluorescence ratio was 1.049 ± 0.0064.
For GGAGAGTGCT, the switch fluorescence ratio was 0.985 ± 0.015.
Sequence GGAGAGTGGT has a switch fluorescence ratio of 1.02 ± 0.023.
Work on GGAGATATTT yielded a switch fluorescence ratio of 1 ± 0.011.
GGAGATCAGG gave a switch fluorescence ratio of 1.03 ± 0.027.
With GGAGATGGGG the switch fluorescence ratio was 1.02 ± 0.018.
GGAGATTGAA showed a switch fluorescence ratio of 0.992 ± 0.019.
With GGAGATTTGG the switch fluorescence ratio was 0.979 ± 0.011.
Work on GGAGCAGCTA yielded a switch fluorescence ratio of 1.06 ± 0.028.
With GGAGCATGAG the switch fluorescence ratio was 2.47 ± 0.14.
GGAGCATGGG showed a switch fluorescence ratio of 1.19 ± 0.04.
GGAGCGCTGG was tested, and the switch fluorescence ratio was 1.05 ± 0.02.
With GGAGCGGCGG the switch fluorescence ratio was 1.02 ± 0.069.
In the case of GGAGCGGTGG, the switch fluorescence ratio is reported as 0.955 ± 0.042.
For GGAGGAGGGG, the switch fluorescence ratio was 1 ± 0.023.
Sequence GGAGGCAGGA has a switch fluorescence ratio of 1.015 ± 0.0036.
For GGAGGGACTT, the switch fluorescence ratio was 1.39 ± 0.68.
GGAGGGAGCG gave a switch fluorescence ratio of 1 ± 0.03.
Sequence GGAGGGGGAA has a switch fluorescence ratio of 1 ± 0.031.
GGAGGGGGGC gave a switch fluorescence ratio of 1.09 ± 0.16.
GGAGGGGTTT gave a switch fluorescence ratio of 1.01 ± 0.04.
GGAGGTAATT was tested, and the switch fluorescence ratio was 0.981 ± 0.027.
With GGAGGTAGTC the switch fluorescence ratio was 0.99 ± 0.033.
With GGAGTAGGTA the switch fluorescence ratio was 1 ± 0.031.
With GGAGTATTAG the switch fluorescence ratio was 0.999 ± 0.072.
Sequence GGAGTCGGGC has a switch fluorescence ratio of 0.981 ± 0.04.
GGAGTGCCAG showed a switch fluorescence ratio of 1 ± 0.027.
Sequence GGAGTGGGAC has a switch fluorescence ratio of 1.12 ± 0.14.
In the case of GGAGTGGGGG, the switch fluorescence ratio is reported as 0.984 ± 0.036.
Work on GGAGTTCGGG yielded a switch fluorescence ratio of 0.978 ± 0.021.
For GGAGTTCGTT, the switch fluorescence ratio was 1.09 ± 0.052.
Sequence GGAGTTGCGG has a switch fluorescence ratio of 0.9089 ± 0.0048.
With GGAGTTTAGT the switch fluorescence ratio was 1.008 ± 0.0016.
Work on GGAGTTTTTT yielded a switch fluorescence ratio of 0.968 ± 0.029.
Sequence GGATAAAAGG has a switch fluorescence ratio of 0.988 ± 0.011.
In the case of GGATAAACGG, the switch fluorescence ratio is reported as 1.03 ± 0.082.
Work on GGATAAAGAC yielded a switch fluorescence ratio of 1.37 ± 0.41.
Sequence GGATAATGCT has a switch fluorescence ratio of 0.9597 ± 0.0094.
Work on GGATACATGT yielded a switch fluorescence ratio of 1.003 ± 0.0031.
Work on GGATACGGGA yielded a switch fluorescence ratio of 1.05 ± 0.084.
GGATACTCGC gave a switch fluorescence ratio of 1.126 ± 0.01.
Sequence GGATACTGCA has a switch fluorescence ratio of 1.043 ± 0.0054.
